Measurements as given in IntAct's records for PubMed 20059542.

B1: Ubiquitin domain-containing protein DSK2 (Saccharomyces cerevisiae), P48510 (parent)
chain: MSLNIHIKSGQDKWEVNVAPESTVLQFKEAINKANGIPVANQRLIYSGKILKDDQTVESYHIQDGHSVHLVKSQPKPQTASAAGANNATATGAAAGTGATPNMSSGQSAGFNPLADLTSARYAGYLNMPSADMFGPDGGALNNDSNNQDELLRMMENPIFQSQMNEMLSNPQMLDFMIQSNPQLQAMGPQARQMLQSPMFRQMLTNPDMIRQSMQFARMMDPNAGMGSAGGAASAFPAPGGDAPEEGSNTNTTSSSNTGNNAGTNAGTNAGANTAANPFASLLNPALNPFANAGNAASTGMPAFDPALLASMFQPPVQASQAEDTRPPEERYEHQLRQLNDMGFFDFDRNVAALRRSGGSVQGALDSLLNGDV
B2: DNA damage-inducible protein 1 (Saccharomyces cerevisiae), P40087 (parent)
chain: MDLTISNELTGEIYGPIEVSEDMALTDLIALLQADCGFDKTKHDLYYNMDILDSNRTQSLKELGLKTDDLLLIRGKISNSIQTDAATLSDEAFIEQFRQELLNNQMLRSQLILQIPGLNDLVNDPLLFRERLGPLILQRRYGGYNTAMNPFGIPQDEYTRLMANPDDPDNKKRIAELLDQQAIDEQLRNAIEYTPEMFTQVPMLYINIEINNYPVKAFVDTGAQTTIMSTRLAKKTGLSRMIDKRFIGEARGVGTGKIIGRIHQAQVKIETQYIPCSFTVLDTDIDVLIGLDMLKRHLACVDLKENVLRIAEVETSFLSEAEIPKSFQEGLPAPTSVTTSSDKPLTPTKTSSTLPPQPGAVPALAPRTGMGPTPTGRSTAGATTATGRTFPEQTIKQLMDLGFPRDAVVKALKQTNGNAEFAASLLFQ
B3: 26S proteasome non-ATPase regulatory subunit 4 homolog (Arabidopsis thaliana (Mouse-ear cress)), P55034 (parent)
chain: MVLEATMICIDNSEWMRNGDYSPSRLQAQTEAVNLLCGAKTQSNPENTVGILTMAGKGVRVLTTPTSDLGKILACMHGLDVGGEINLTAAIQIAQLALKHRQNKNQRQRIIVFAGSPIKYEKKALEIVGKRLKKNSVSLDIVNFGEDDDEEKPQKLEALLTAVNNNDGSHIVHVPSGANALSDVLLSTPVFTGDEGASGYVSAAAAAAAAGGDFDFGVDPNIDPELALALRVSMEEERARQEAAAKKAADEAGQKDKDGDTASASQETVARTTDKNAEPMDEDSALLDQAIAMSVGDVNMSEAADEDQDLALALQMSMSGEESSEATGAGNNLLGNQAFISSVLSSLPGVDPNDPAVKELLASLPDESKRTEEEESSSKKGEDEKK
B4: 26S proteasome non-ATPase regulatory subunit 4 homolog (Arabidopsis thaliana (Mouse-ear cress)), P55034 (parent)
chain: B3 chain
partner: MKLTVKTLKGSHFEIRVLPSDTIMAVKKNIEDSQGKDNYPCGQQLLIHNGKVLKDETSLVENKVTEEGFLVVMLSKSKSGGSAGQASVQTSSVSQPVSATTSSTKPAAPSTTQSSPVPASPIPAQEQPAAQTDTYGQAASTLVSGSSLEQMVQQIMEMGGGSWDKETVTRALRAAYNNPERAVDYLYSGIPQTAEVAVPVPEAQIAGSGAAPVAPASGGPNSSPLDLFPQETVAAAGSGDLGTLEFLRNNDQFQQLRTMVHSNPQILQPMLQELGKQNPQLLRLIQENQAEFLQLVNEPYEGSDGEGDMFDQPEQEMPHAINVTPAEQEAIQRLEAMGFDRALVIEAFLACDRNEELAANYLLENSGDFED
B5: 26S proteasome regulatory subunit RPN10 (Saccharomyces cerevisiae), P38886 (parent)
chain: MVLEATVLVIDNSEYSRNGDFPRTRFEAQIDSVEFIFQAKRNSNPENTVGLISGAGANPRVLSTFTAEFGKILAGLHDTQIEGKLHMATALQIAQLTLKHRQNKVQHQRIVAFVCSPISDSRDELIRLAKTLKKNNVAVDIINFGEIEQNTELLDEFIAAVNNPQEETSHLLTVTPGPRLLYENIASSPIILEEGSSGMGAFGGSGGDSDANGTFMDFGVDPSMDPELAMALRLSMEEEQQRQERLRQQQQQQDQPEQSEQPEQHQDK
B6: 26S proteasome non-ATPase regulatory subunit 4 homolog (Arabidopsis thaliana (Mouse-ear cress)), P55034 (parent)
chain: B3 chain
partner: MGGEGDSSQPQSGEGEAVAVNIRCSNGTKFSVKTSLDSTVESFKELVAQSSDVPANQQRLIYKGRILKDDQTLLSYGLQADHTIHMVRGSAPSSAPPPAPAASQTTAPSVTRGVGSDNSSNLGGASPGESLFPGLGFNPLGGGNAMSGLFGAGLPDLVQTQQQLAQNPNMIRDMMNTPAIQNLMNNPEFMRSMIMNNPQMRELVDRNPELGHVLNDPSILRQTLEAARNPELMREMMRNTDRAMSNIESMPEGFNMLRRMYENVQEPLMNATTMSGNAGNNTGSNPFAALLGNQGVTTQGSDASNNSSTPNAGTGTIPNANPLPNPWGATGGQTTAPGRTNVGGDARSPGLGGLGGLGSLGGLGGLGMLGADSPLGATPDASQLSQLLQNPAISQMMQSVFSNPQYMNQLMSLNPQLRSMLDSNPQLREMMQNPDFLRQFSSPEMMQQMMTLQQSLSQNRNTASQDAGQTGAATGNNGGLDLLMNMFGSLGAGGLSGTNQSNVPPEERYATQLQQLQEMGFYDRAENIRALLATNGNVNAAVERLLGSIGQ
B7: 26S proteasome non-ATPase regulatory subunit 4 (Homo sapiens), P55036 (parent)
chain: MVLESTMVCVDNSEYMRNGDFLPTRLQAQQDAVNIVCHSKTRSNPENNVGLITLANDCEVLTTLTPDTGRILSKLHTVQPKGKITFCTGIRVAHLALKHRQGKNHKMRIIAFVGSPVEDNEKDLVKLAKRLKKEKVNVDIINFGEEEVNTEKLTAFVNTLNGKDGTGSHLVTVPPGPSLADALISSPILAGEGGAMLGLGASDFEFGVDPSADPELALALRVSMEEQRQRQEEEARRAAAASAAEAGIATTGTEDSDDALLKMTISQQEFGRTGLPDLSSMTEEEQIAYAMQMSLQGAEFGQAESADIDASSAMDTSEPAKEEDDYDVMQDPEFLQSVLENLPGVDPNNEAIRNAMGSLASQATKDGKKDKKEEDKK
partner: B6 partner
B8: 26S proteasome non-ATPase regulatory subunit 4 (Homo sapiens), P55036 (parent)
chain: B7 chain
partner: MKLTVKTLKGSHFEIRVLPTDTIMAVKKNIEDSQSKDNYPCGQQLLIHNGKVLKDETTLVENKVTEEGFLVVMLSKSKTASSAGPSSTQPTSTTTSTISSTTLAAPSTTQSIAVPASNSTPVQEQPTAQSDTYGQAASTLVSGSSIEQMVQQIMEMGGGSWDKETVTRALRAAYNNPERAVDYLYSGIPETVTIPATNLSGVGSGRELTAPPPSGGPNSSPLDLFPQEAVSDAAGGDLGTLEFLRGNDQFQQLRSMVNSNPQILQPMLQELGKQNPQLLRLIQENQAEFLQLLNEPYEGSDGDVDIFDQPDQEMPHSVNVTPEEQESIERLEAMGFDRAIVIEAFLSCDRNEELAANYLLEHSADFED
B9: 26S proteasome regulatory subunit RPN10 (Saccharomyces cerevisiae), P38886 (parent)
chain: B5 chain
partner: B6 partner
B10: 26S proteasome regulatory subunit RPN10 (Saccharomyces cerevisiae), P38886 (parent)
chain: B5 chain
partner: B8 partner

Variants of: B1
Details: with ubc_human UBC
Target sequence in this assay (P0CG48 whole entry, looked up): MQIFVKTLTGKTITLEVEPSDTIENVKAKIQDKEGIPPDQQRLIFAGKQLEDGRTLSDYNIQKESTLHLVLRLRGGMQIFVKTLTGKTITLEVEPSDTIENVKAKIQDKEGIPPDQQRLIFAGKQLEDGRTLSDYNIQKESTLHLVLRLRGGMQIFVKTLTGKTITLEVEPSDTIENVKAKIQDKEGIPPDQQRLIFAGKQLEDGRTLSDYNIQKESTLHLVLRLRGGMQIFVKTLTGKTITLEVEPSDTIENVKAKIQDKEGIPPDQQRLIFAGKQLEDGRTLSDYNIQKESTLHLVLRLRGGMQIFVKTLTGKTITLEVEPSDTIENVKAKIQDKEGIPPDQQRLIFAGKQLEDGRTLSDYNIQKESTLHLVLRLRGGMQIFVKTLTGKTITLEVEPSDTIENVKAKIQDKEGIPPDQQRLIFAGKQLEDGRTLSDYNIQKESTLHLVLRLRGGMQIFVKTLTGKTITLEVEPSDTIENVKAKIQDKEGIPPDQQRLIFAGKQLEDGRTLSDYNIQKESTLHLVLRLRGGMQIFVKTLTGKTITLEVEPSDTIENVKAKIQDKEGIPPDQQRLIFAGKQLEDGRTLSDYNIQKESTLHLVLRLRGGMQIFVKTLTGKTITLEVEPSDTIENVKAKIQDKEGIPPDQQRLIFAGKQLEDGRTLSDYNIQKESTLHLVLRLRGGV

Variant | effect of a mutation on the interaction
M342A;G343A | disrupting interaction strength

Variants of: B2
Details: with ubc_human UBC
Target sequence in this assay (P0CG48 whole entry, looked up): as above

Variant | effect of a mutation on the interaction
L401A;G402A | disrupting interaction strength

Variants of: B2
Details: with ubc_human UBC
Remark: another data set of the same source
Target sequence in this assay (P0CG48 whole entry, looked up): as above

Variant | effect of a mutation on the interaction
L401A;G402A | decreasing interaction strength

Variants of: B3
Details: with dsk2_yeast DSK2, P48510

Variant | effect of a mutation on the interaction
L226D;A227D;L228D;A229D;L230D | disrupting interaction strength
L286N;L287N;Q289N;A290D | with no effect
L286N;L287N;Q289N;A290D;L310N;A311N;L312N;A313D;L314N | with no effect
L310N;A311N;L312N;A313D;L314N | with no effect

Variants of: B3
Details: with ubql2_human UBQLN2, Q9UHD9
Target sequence in this assay (Q9UHD9 whole entry): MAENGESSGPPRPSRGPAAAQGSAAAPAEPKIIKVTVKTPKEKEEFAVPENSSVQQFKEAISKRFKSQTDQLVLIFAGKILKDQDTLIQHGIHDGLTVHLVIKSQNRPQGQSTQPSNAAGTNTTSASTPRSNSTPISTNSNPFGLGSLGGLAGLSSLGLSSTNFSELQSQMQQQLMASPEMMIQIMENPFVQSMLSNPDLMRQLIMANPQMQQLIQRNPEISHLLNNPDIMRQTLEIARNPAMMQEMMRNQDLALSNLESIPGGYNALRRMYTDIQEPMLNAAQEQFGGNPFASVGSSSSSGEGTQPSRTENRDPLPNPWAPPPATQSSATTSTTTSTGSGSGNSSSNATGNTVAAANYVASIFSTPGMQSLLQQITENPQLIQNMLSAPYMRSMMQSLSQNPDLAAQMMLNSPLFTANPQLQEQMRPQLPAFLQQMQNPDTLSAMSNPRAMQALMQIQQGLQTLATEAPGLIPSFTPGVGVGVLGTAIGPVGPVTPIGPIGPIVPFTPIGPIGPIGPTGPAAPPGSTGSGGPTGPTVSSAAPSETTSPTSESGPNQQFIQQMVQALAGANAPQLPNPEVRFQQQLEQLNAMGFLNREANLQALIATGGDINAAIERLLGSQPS

Variant | effect of a mutation on the interaction
L226D;A227D;L228D;A229D;L230D | disrupting interaction strength
L286N;L287N;Q289N;A290D | with no effect
L286N;L287N;Q289N;A290D;L310N;A311N;L312N;A313D;L314N | with no effect
L310N;A311N;L312N;A313D;L314N | with no effect

Variants of: B3
Details: with rd23b_human RAD23B

Variant | effect of a mutation on the interaction
L226D;A227D;L228D;A229D;L230D | with no effect
L286N;L287N;Q289N;A290D | with no effect
L286N;L287N;Q289N;A290D;L310N;A311N;L312N;A313D;L314N | disrupting interaction strength
L310N;A311N;L312N;A313D;L314N | disrupting interaction strength
L226D;A227D;L228D;A229D;L230D;L286N;L287N;Q289N;A290D | decreasing interaction strength
L226D;A227D;L228D;A229D;L230D;L310N;A311N;L312N;A313D;L314N | disrupting interaction strength

Variants of: B4
Details: with rd23b_arath RAD23B

Variant | effect of a mutation on the interaction
L226D;A227D;L228D;A229D;L230D | with no effect
L226D;A227D;L228D;A229D;L230D;L286N;L287N;Q289N;A290D | decreasing interaction strength
L226D;A227D;L228D;A229D;L230D;L310N;A311N;L312N;A313D;L314N | disrupting interaction strength
L286N;L287N;Q289N;A290D | with no effect
L286N;L287N;Q289N;A290D;L310N;A311N;L312N;A313D;L314N | disrupting interaction strength
L310N;A311N;L312N;A313D;L314N | disrupting interaction strength

Variants of: B5
Details: with dsk2_yeast DSK2, P48510

Variant | effect of a mutation on the interaction
L228N;A229N;M230N;A231N;L232N | disrupting interaction strength

Variants of: B5
Details: with ubql2_human UBQLN2, Q9UHD9
Target sequence in this assay (Q9UHD9 whole entry): as above

Variant | effect of a mutation on the interaction
L228N;A229N;M230N;A231N;L232N | disrupting interaction strength

Variants of: B6
Details: with dsk2b_arath DSK2B

Variant | effect of a mutation on the interaction
L226D;A227D;L228D;A229D;L230D | disrupting interaction strength
L286N;L287N;Q289N;A290D | with no effect
L286N;L287N;Q289N;A290D;L310N;A311N;L312N;A313D;L314N | with no effect
L310N;A311N;L312N;A313D;L314N | with no effect

Variants of: B7
Details: with dsk2b_arath DSK2B

Variant | effect of a mutation on the interaction
L216N;A217N;L218N;A219N;L220N | with no effect
L216N;A217N;L218N;A219N;L220N;I287N;A288N;Y289N;A290N;M291N | disrupting interaction strength
I287N;A288N;Y289N;A290N;M291N | disrupting interaction strength

Variants of: B8
Details: with rd23a_arath RAD23A

Variant | effect of a mutation on the interaction
L216N;A217N;L218N;A219N;L220N | with no effect
L216N;A217N;L218N;A219N;L220N;I287N;A288N;Y289N;A290N;M291N | disrupting interaction strength
I287N;A288N;Y289N;A290N;M291N | disrupting interaction strength

Variants of: B9
Details: with dsk2b_arath DSK2B

Variant | effect of a mutation on the interaction
L228N;A229N;M230N;A231N;L232N | disrupting interaction strength

Variants of: B10
Details: with rd23a_arath RAD23A

Variant | effect of a mutation on the interaction
L228N;A229N;M230N;A231N;L232N | disrupting interaction strength
